From patent US20010029022A1

Biological target: CDK2 kinase complex (cyclin not given) (UniProt P24941)
Assay: cell-based or functional assay

B1: GST-HPV6b E7 (protein)
chain: MHGRHVTLKDIVLDLQPPDPVGLHCYEQLVDSSEDEVDEVDGQDSQPLKQHFQIVTCCCGCDSNVRLVVQCTETDIREVQQLLLGTLNIVCPICAPKT
CDK2 histone kinase activity, fold activation: 15.8 fold
